Experimental data reported in US9458189B2, “Ligation of stapled polypeptides” (President and Fellows of Harvard College, priority 2008, dated 2016).
Primed or numbered codes have the meaning given here. No end group written: not given here. *: point of attachment. FITC = O=C1OC2(c3ccc(O)cc3Oc3cc(O)ccc32)c2ccc(NC(=S)*)cc21; PEG3′ = not defined here

Assay: Circular dichroism of Max basic region peptides
Type: physicochemical
Conditions: circular dichroism wavelength scans; 100 uM peptide in water
Method: Each of the synthesized peptides were purified by HPLC and biochemically characterized. Each peptide was diluted in water to a final concentration of 100 uM using the extinction coefficient of FITC at 495 nm in 50 mM NaH2PO4, pH 8.0. […] One peptide, i, i+4 version 1, was chosen to be synthesized so as to contain a C-terminal thioester. The peptide was synthesized using t-Boc chemistry on 3-S-trityl-mercaptopropionyl resin. The peptide was purified by HPLC and the desired product was confirmed by LC/MS analysis.

unmodified basic region peptide: unmodified DNA binding basic region of Max (RAHHNALERKRR, SEQ ID NO: 2) with N-terminal PEG-3 linker and FITC ({FITC-PEG3′}-RAHHNALERKRR)
CD profile (secondary structure in solution): disordered in solution
